Data on 2 molecules can be found in patent publication US20250057968A1, “ANTI-DLL3 ANTIBODY AND PHARMACEUTICAL USE THEREOF, AND ANTIBODY-DRUG CONJUGATE CONTAINING ANTI-DLL3 ANTIBODY” (Jiangsu Hengrui Pharmaceuticals Co., Ltd., priority 2021, published 2025).

The target of experiment [1] is T1, RatDLL3/CHO-s (Rattus norvegicus, UniProt O88671).
T1 construct: Rat DLL3 full-length protein; expressed in transfected cells; host or cells: CHO-s (Invitrogen, R80007), lentiviral transduction
T1 sequence (O88671 33-589): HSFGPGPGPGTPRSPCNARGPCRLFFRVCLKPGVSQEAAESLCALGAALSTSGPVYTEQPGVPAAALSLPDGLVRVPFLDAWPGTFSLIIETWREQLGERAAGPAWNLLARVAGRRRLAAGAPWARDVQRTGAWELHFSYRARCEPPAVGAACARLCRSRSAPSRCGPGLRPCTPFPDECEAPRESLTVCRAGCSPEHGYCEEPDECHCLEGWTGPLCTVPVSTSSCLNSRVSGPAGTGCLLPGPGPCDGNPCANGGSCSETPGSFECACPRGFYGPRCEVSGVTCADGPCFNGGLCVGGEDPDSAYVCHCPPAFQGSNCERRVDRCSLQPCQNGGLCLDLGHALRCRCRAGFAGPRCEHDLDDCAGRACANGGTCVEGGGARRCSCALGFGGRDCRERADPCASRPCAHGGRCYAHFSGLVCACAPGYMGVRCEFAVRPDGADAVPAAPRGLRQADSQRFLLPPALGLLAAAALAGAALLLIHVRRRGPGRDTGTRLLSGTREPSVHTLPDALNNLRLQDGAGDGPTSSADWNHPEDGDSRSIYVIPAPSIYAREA
Briefly: Cell-level FACS binding assay, RatDLL3/CHO-s cells. Here is the method: (§1) Cells of the DLL3-expressing small cell lung cancer cell lines H1184 (ATCC, Cat. No. CRL-5858), DLL3/H82, cynoDLL3/CHO-s, and RatDLL3/CHO-s were suspended at 1×10^6/mL in FACS buffer (1% BSA+pH 7.4 PBS), and the cell suspensions were added to a 96-well round-bottom plate (Corning, 3795) at 100 μL/well. The plate was centrifuged at 300 g for 5 min, and the supernatant was removed. Different concentrations of test antibodies were added at 100 μL/well. The plate was incubated in the dark in a refrigerator at 4° C. for 1 h. After 3 washes by centrifugation at 300 g, working concentrations of APC anti-human IgG Fc (BioLegend, 410712) or PE F(ab′)2-goat anti-human IgG (invitrogen, H10104) were added. The plate was incubated in the dark in a refrigerator at 4° C. for 40 min. After 3 washes by centrifugation at 300 g, the geometric mean fluorescence intensity was measured on an Invitrogen flow cytometer, and the EC50 values of the antibodies in binding to DLL3-expressing cells were calculated. The results are shown in Table 11-1, Table 11-2, Table 11-3, and FIG. 1A to FIG. 1C.

In experiment [2] the target is T2, Human DLL3 full-length protein on cells (human, UniProt Q9NYJ7 27-618).
T2 sequence: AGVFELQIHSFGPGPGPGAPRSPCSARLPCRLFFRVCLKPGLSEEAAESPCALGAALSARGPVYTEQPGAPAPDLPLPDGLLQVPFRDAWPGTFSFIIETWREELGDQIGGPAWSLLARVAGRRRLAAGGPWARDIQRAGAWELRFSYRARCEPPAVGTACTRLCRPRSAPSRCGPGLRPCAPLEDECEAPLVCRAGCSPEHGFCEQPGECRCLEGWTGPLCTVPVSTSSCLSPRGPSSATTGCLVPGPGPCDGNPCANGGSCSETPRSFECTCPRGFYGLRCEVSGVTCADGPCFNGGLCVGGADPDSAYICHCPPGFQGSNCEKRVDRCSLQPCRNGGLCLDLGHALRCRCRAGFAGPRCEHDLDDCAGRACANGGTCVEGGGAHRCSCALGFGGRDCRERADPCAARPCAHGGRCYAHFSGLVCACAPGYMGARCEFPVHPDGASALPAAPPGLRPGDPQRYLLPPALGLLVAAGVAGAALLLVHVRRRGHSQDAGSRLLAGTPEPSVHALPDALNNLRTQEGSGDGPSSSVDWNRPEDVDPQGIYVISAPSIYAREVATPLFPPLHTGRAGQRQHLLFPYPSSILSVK
Briefly: cell-based or functional assay.

Experiment [3] addresses T3, Cynomolgus monkey DLL3 full-length protein on CHO-s cells (cynomolgus monkey, UniProt Q9NYJ7 27-618 (human entry)).
T3 construct: also called cynoDLL3/CHO-s
T3 chain: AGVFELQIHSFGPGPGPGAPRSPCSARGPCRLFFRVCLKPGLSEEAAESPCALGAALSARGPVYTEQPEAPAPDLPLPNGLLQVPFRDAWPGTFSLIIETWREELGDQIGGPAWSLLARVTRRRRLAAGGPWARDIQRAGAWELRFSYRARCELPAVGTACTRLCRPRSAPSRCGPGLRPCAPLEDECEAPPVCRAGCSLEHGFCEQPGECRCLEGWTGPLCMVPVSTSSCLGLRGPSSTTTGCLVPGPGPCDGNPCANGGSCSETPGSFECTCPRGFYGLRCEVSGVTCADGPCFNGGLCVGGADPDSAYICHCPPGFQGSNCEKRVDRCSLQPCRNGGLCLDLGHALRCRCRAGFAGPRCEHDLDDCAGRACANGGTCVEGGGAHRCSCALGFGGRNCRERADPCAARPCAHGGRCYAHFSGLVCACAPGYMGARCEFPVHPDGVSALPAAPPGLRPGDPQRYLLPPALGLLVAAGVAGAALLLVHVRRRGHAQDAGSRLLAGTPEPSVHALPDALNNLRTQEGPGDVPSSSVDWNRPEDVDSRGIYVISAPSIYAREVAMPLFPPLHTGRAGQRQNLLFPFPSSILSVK
Briefly: FACS on cynoDLL3/CHO-s cells. As to the method: as §1, with “calculated.” for “calculated. The results are shown in Table 11-1, Table 11-2, Table 11-3, and FIG. 1A to FIG. 1C.”

In experiment [4] the target is T2, Human DLL3 full-length protein on cells. Briefly: FACS on H1184 cells. Here is the method: as §1, with “calculated.” for “calculated. The results are shown in Table 11-1, Table 11-2, Table 11-3, and FIG. 1A to FIG. 1C.”
Experiment [5] deals with T4, hDLL3(ECD)-strep twin, biotinylated (human, UniProt Q9NYJ7 27-492, biotinylated (site not stated)).
T4 construct: also called Biotinylated DLL3 antigen; Biotinylated DLL3-Strep
Briefly: competition ELISA: BI-764532 coated on the plate (1 µg/mL), biotinylated DLL3-Strep (0.1 µg/mL) with soluble BI-764532 as competitor, streptavidin-peroxidase detection, OD450. Here is the method:
The plate was washed 3 times with 250 μL of PBST solution per well. The plate was blocked with 250 μL of 5% milk per well at 37° C. for 2 h. The plate was washed 3 times with 250 μL of PBST solution per well. […] The plate was washed 6 times with 250 μL of PBST solution per well. […] The plate was washed 6 times with 250 μL of PBST solution per well. TMB (KPL, 5120-0077) substrate solution was added at 100 μL/well, and color development was allowed at room temperature for 5-10 min.

In experiment [6] the target is T5, Rat DLL3 full-length protein on CHO-s cells (rat, UniProt O88671 33-589).
T5 construct: also called RatDLL3/CHO-s; ratDLL3/CHO-s
T5 sequence: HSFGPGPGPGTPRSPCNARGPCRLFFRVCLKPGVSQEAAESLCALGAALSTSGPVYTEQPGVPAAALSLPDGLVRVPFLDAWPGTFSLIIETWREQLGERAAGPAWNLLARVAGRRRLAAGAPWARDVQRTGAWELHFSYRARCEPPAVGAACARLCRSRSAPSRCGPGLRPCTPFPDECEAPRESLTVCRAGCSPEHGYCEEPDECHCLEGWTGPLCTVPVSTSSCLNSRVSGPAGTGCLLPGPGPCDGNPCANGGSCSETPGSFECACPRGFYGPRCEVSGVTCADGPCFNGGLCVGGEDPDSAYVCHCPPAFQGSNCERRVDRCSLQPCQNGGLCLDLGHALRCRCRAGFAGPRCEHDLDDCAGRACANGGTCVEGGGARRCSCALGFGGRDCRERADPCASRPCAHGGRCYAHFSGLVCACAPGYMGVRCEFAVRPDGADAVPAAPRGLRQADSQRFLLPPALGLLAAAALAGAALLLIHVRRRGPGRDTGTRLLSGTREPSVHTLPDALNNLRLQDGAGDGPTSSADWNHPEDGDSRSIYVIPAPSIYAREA
Briefly: FACS on RatDLL3/CHO-s cells. Here is the method: as §1, with “calculated.” for “calculated. The results are shown in Table 11-1, Table 11-2, Table 11-3, and FIG. 1A to FIG. 1C.”

Regarding “BI-764532: positive control molecule, constructed by reference to WO2019234220A1; heavy chain SEQ ID NO: 62, light chain SEQ ID NO: 63 [reference compound]”, in experiment [1], the “binding to cells expressing rat DLL3 (in words)” value was “No binding”.

B1: BI-764532 (antibody, human IgG1, kappa, V domains shown)
VH: QVQLVQSGAEVKKPGASVKVSCKASGYTFTSYYVHWVRQAPGQGLEWMVIINPGGGTTSYAQKFLGRVTMTRDTSTNTVYMELKSLRSEDTAVYYCARGEAVTGNYFYYGMDVWGQGTTVTVSS
VL: DIQMTQSPSAMSASVGDRVTITCRASQGISNYLVWFQQKPGKAPKRLIYAVSSLYSGVPSRFSGSGSGTEFTLTISSLQPEDFATYYCLQHDSYPYTFGQGTKLEIKR
notes: also called positive control molecule
For the molecule B1, in experiment [2], the “IC50 (nM), cell killing caused by endocytosis of antibodies (DT3C, DMS53/DLL3 cells)” value is 3.27 nM and the “Imax, cell killing caused by endocytosis of antibodies (DT3C, DMS53/DLL3 cells)” value amounted to 86.5. In experiment [3], the response was half-maximal at 3.42 nM (EC50) and the Emax turned out to be 963. In addition, in experiment [4], the EC50 turned out to be 3.94 nM and the Emax is 1620. Moreover, the “IC50 (read off the curve)” value in experiment [5] is about 0.06 µg/mL. For the same molecule, the binding result in experiment [6] is “no binding”.
